Results on three substances are retold here after article PMC9769723.

The target in test [1] is Trichococcus flocculiformis photolyase (TfPHR), class 2 cyclobutane pyrimidine dimer (CPDII) photolyase (Trichococcus flocculiformis).
Test [2] shares this target. Kind of test: ITC; MicroCal ITC200; both proteins in sonication buffer (150 mM NaCl, 50 mM Tris-HCl pH 7.0) with 0.02% DDM; which protein was in the syringe is not given. (Isothermal titration calorimetry measures the heat released or taken up as one component is titrated into another.)
The target is the same in test [3]. Kind of test: shift of the absorption spectrum of the rhodopsin after mixing; purified TfHeR and TfPHR mixed at a 1:4 molar ratio, time-dependent absorption spectra (UV-2450 spectrometer).
The target in test [4] is NpSRII (Natronomonas pharaonis) (UniProt P42196). As to conditions: cited from earlier work.
UniProt P42196, sequence (P42196 whole entry): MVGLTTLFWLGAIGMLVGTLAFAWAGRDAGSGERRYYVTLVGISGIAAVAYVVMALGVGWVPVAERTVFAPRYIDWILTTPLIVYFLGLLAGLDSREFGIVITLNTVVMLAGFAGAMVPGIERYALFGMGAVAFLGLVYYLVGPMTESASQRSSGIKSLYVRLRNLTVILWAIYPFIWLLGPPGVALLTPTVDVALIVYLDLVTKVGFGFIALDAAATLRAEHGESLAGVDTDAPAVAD

pKd: −log10 of the molar value.

By pKd is commonly meant the negative decadic logarithm of the Kd, by convention in mol/L. Consider “Trichococcus flocculiformis heliorhodopsin (TfHeR) (natural protein)”, for which the in vitro repair of UV-damaged oligo(dT)20 by TfPHR under white light (absorbance at 265 nm), with TfHeR against TfPHR alone, at saturation in test [1] was 3 fold. Moreover, in test [2], the pKd was 4.66 and the dH was -18.8 kcal/mol. The shift of the absorption maximum after mixing (blue shift) in test [3] was 8 nm.
In test [2], TfHeR E97Q mutant (natural protein) had a pKd of 3.92. For the same substance, in test [3], the shift of the absorption maximum after mixing (blue shift) amounted to 4 nm.
Consider NpHtrII (from UniProt P42259), for which the pKd in test [4] is 6.19.
